Test results as given in patent publication US5877293, “CDR grafted anti-CEA antibodies and their production” (Celltech Therapeutics Limited, dated 1999).

What was measured:
[1] = target: T1, Carcinoembryonic Antigen (CEA) (Homo sapiens (Human), UniProt P06731); assay: competition RIA against 125I-labelled murine or chimeric A5B7 IgG1 on CEA coated beads
Procedure: (§1) The competition RIA for anti-CEA activity involved competition of a series of ^125I-labelled murine or chimeric A5B7 IgG1 with humanised IgG or fragments thereof from culture supernatant samples for binding to CEA coated beads. Binding activity was determined by measuring bead associated radioactivity. The assay was calibrated by competition with standard preparations of chimeric or murine A5B7 IgG1 and plotting % bound cpm versus antibody concentration. Interpolated apparent A5B7 concentration of unknowns was normalised by dividing by the assembly assay result to give a specific activity. Finally specific activity was expressed as % relative potency by comparison to that obtained from a positive control chimeric A5B7 culture supernatant produced during the same experiment.
The relative potency of purified murine and chimeric A5B7 Fab' and F(ab')_2 fragments and murine IgG was investigated using the competition RIA. In addition, the direct binding ELISA was run in competition mode, by coincubation of the test specimen with murine A5B7 IgG1, for confirmation of relative potency.
The relative potencies of murine and chimeric IgGs and fragments were measured by the competition RIA.

[2] = target: T1, Carcinoembryonic Antigen (CEA); assay: competition RIA on CEA coated beads, crude CHO supernatant
Procedure: as §1
In order to assess the CEA binding activity of the grafted chains co-expression, experiments in a transient CHO cell system were first performed with chimeric partners. Thus pAL43 and pAL44 were co-transfected into the CHO L761 h cell line (27) together with the chimeric A5B7 heavy chain expression plasmid pBG7, while pAL45 and pAL46 were co-transfected with the light chain expression plasmid pBG11. Co-transfections of pBG7 and pHMC19 were also performed to provide a chimeric/chimeric standard against which to compare activity of the chimeric/grafted hybrids. […] Competition RIAs were also performed on the crude CHO cell supernatants for gL1/gH2 and gL2/gH2.

[3] = target: T1, Carcinoembryonic Antigen (CEA); assay: direct CEA binding ELISA, crude transient CHO supernatant
[4] = target: T1, Carcinoembryonic Antigen (CEA); assay: direct CEA binding ELISA, crude transient CHO supernatant (pAL46 + pBG11)
[5] = target: T1, Carcinoembryonic Antigen (CEA); assay: direct CEA binding ELISA, crude transient CHO supernatant (pAL44 + pBG7)
[6] = target: T1, Carcinoembryonic Antigen (CEA); assay: direct CEA binding ELISA, crude transient CHO supernatant (pAL45 + pBG11)
[7] = target: T1, Carcinoembryonic Antigen (CEA); assay: direct CEA binding ELISA, crude transient CHO supernatant (pAL43 + pBG7)

B1: murine A5B7 F(ab')2 (other)
VH: EVKLVESGGGLVQPGGSLRLSCATSGFTFTDYYMNWVRQPPGKALEWLGFIGNKANGYTTEYSASVKGRFTISRDKSQSILYLQMNTLRAEDSATYYCTRDRGLRFYFDYWGQGTTLTVSS
VL: QTVLSQSPAILSASPGEKVTMTCRASSSVTYIHWYQQKPGSSPKSWIYATSNLASGVPARFSGSGSGTSYSLTISRVEAEDAATYYCQHWSSKPPTFGGGTKLEIKR
- % Relative Potency [1]: 97%

B2: chimeric A5B7 IgG1 (antibody, V domains shown)
VH: EVKLVESGGGLVQPGGSLRLSCATSGFTFTDYYMNWVRQPPGKALEWLGFIGNKANGYTTEYSASVKGRFTISRDKSQSILYLQMNTLRAEDSATYYCTRDRGLRFYFDYWGQGTTLTVSS
VL: QTVLSQSPAILSASPGEKVTMTCRASSSVTYIHWYQQKPGSSPKSWIYATSNLASGVPARFSGSGSGTSYSLTISRVEAEDAATYYCQHWSSKPPTFGGGTKLEIKR
- % Relative Potency [1]: 100%
- Specific activity [2]: 1.17
- relative potency [2]: 100%

B3: Grafted A5B7 gL1/gH2 (antibody, V domains shown)
VH: EVQLLESGGGLVQPGGSLRLSCATSGFTFTDYYMNWVRQAPGKGLEWLGFIGNKANGYTTEYSASVKGRFTISRDKSKSTLYLQMNTLQAEDSAIYYCTRDRGLRFYFDYWGQGTLVTVSS
VL: QTVLTQSPSSLSVSVGDRVTITCRASSSVTYIHWYQQKPGLAPKSLIYATSNLASGVPSRFSGSGSGTDYTFTISSLQPEDIATYYCQHWSSKPPTFGQGTKVEVKR
- binding relative to the double chimeric antibody [3]: ~60%
- Specific activity [2]: 0.49
- relative potency [2]: 42%

B4: mouse monoclonal antibody A5B7 (murine A5B7 IgG1) (antibody, V domains shown)
VH: EVKLVESGGGLVQPGGSLRLSCATSGFTFTDYYMNWVRQPPGKALEWLGFIGNKANGYTTEYSASVKGRFTISRDKSQSILYLQMNTLRAEDSATYYCTRDRGLRFYFDYWGQGTTLTVSS
VL: QTVLSQSPAILSASPGEKVTMTCRASSSVTYIHWYQQKPGSSPKSWIYATSNLASGVPARFSGSGSGTSYSLTISRVEAEDAATYYCQHWSSKPPTFGGGTKLEIKR
- % Relative Potency [1]: 93%

B5: chimeric A5B7 light chain / grafted heavy chain gH2 hybrid (antibody, V domains shown)
VH: EVQLLESGGGLVQPGGSLRLSCATSGFTFTDYYMNWVRQAPGKGLEWLGFIGNKANGYTTEYSASVKGRFTISRDKSKSTLYLQMNTLQAEDSAIYYCTRDRGLRFYFDYWGQGTLVTVSS
VL: QTVLSQSPAILSASPGEKVTMTCRASSSVTYIHWYQQKPGSSPKSWIYATSNLASGVPARFSGSGSGTSYSLTISRVEAEDAATYYCQHWSSKPPTFGGGTKLEIKR
- binding result [4]: binds

B6: murine A5B7 Fab' (Fab, V domains shown)
VH: EVKLVESGGGLVQPGGSLRLSCATSGFTFTDYYMNWVRQPPGKALEWLGFIGNKANGYTTEYSASVKGRFTISRDKSQSILYLQMNTLRAEDSATYYCTRDRGLRFYFDYWGQGTTLTVSS
VL: QTVLSQSPAILSASPGEKVTMTCRASSSVTYIHWYQQKPGSSPKSWIYATSNLASGVPARFSGSGSGTSYSLTISRVEAEDAATYYCQHWSSKPPTFGGGTKLEIKR
modifications: rendered monovalent by alkylation
- % Relative Potency [1]: 8%

B7: chimeric A5B7 IgG4 Fab' delta cys (Fab, V domains shown)
VH: EVKLVESGGGLVQPGGSLRLSCATSGFTFTDYYMNWVRQPPGKALEWLGFIGNKANGYTTEYSASVKGRFTISRDKSQSILYLQMNTLRAEDSATYYCTRDRGLRFYFDYWGQGTTLTVSS
VL: QTVLSQSPAILSASPGEKVTMTCRASSSVTYIHWYQQKPGSSPKSWIYATSNLASGVPARFSGSGSGTSYSLTISRVEAEDAATYYCQHWSSKPPTFGGGTKLEIKR
- % Relative Potency [1]: 20%

B8: grafted light chain gL2 / chimeric A5B7 heavy chain hybrid (antibody, V domains shown)
VH: EVKLVESGGGLVQPGGSLRLSCATSGFTFTDYYMNWVRQPPGKALEWLGFIGNKANGYTTEYSASVKGRFTISRDKSQSILYLQMNTLRAEDSATYYCTRDRGLRFYFDYWGQGTTLTVSS
VL: QTVLTQSPSSLSVSVGDRVTMTCRASSSVTYIHWYQQKPGLAPKSWIYATSNLASGVPSRFSGSGSGTDYTLTISSLQPEDIATYYCQHWSSKPPTFGQGTKVEVKR
- binding result [5]: binds

B9: chimeric A5B7 light chain / grafted heavy chain gH1 hybrid (antibody, V domains shown)
VH: EVQLLESGGGLVQPGGSLRLSCATSGFTFTDYYMNWVRQAPGKGLEWLGFIGNKANGYTTEYSASVKGRFTISRDKSKSTLYLQMNGLQAEVSAIYYCTRDRGLRFYFDYWGQGTLVTVSS
VL: QTVLSQSPAILSASPGEKVTMTCRASSSVTYIHWYQQKPGSSPKSWIYATSNLASGVPARFSGSGSGTSYSLTISRVEAEDAATYYCQHWSSKPPTFGGGTKLEIKR
- binding result [6]: binds

B10: Grafted A5B7 gL2/gH2 (antibody, V domains shown)
VH: EVQLLESGGGLVQPGGSLRLSCATSGFTFTDYYMNWVRQAPGKGLEWLGFIGNKANGYTTEYSASVKGRFTISRDKSKSTLYLQMNTLQAEDSAIYYCTRDRGLRFYFDYWGQGTLVTVSS
VL: QTVLTQSPSSLSVSVGDRVTMTCRASSSVTYIHWYQQKPGLAPKSWIYATSNLASGVPSRFSGSGSGTDYTLTISSLQPEDIATYYCQHWSSKPPTFGQGTKVEVKR
- binding relative to the double chimeric antibody [3]: ~60%
- Specific activity [2]: 0.55
- relative potency [2]: 47%

B11: grafted light chain gL1 / chimeric A5B7 heavy chain hybrid (antibody, V domains shown)
VH: EVKLVESGGGLVQPGGSLRLSCATSGFTFTDYYMNWVRQPPGKALEWLGFIGNKANGYTTEYSASVKGRFTISRDKSQSILYLQMNTLRAEDSATYYCTRDRGLRFYFDYWGQGTTLTVSS
VL: QTVLTQSPSSLSVSVGDRVTITCRASSSVTYIHWYQQKPGLAPKSLIYATSNLASGVPSRFSGSGSGTDYTFTISSLQPEDIATYYCQHWSSKPPTFGQGTKVEVKR
- binding result [7]: binds
